This note sets out measurements from publication PMC6304784.

Assay [1] concerns the target N-terminally GFP-tagged full-length wild-type MyD88 (human) (UniProt Q99836). Put plainly: fluorescence correlation spectroscopy (FCS); GFP-tagged protein in the cell-free expression mixture; single diffusing species model; hydrodynamic radius normalised to sfGFP.
The target of assay [2] is mCherry-tagged full-length wild-type MyD88 (human) (UniProt Q99836). Put plainly: two-colour single-particle coincidence spectroscopy (seeding assay); mCherry-tagged full-length MyD88 filaments spun down and sonicated ('seeds') added to GFP-tagged full-length MyD88 expressed over a range of concentrations (10 nM and above); 488 nm and 561 nm lasers; traces of 180 s.
Chain of mCherry-tagged full-length wild-type MyD88 (human) (Q99836 whole entry): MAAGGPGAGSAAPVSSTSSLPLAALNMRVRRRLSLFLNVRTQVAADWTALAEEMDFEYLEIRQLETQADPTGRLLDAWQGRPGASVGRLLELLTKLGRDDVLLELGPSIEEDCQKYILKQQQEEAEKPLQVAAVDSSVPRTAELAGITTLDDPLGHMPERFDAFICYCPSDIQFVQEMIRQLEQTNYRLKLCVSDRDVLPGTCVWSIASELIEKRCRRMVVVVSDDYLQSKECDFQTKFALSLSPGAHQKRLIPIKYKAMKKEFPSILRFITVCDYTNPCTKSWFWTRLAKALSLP
Assay [3] has as its target N-terminally GFP-tagged full-length wild-type MyD88 (human) (UniProt Q99836). The assay can be described thus: single-molecule fluorescence fluctuation spectroscopy (brightness B parameter, time-traces, intensity histograms); GFP-tagged protein freely diffusing in the cell-free expression mixture on a confocal microscope, 488-nm laser; dilution series of the DNA template giving 0 to about 320 nM protein; mutants compared at 150 nM; samples diluted 10 times in buffer A.

The term stoichiometry N denotes a count of units in the complex or per binding partner.

As to “N-terminally GFP-tagged full-length wild-type MyD88 (from UniProt Q99836 1-296) (natural protein)”, the stoichiometry N (monomeric units) in assay [1] was > 100. For the same substance, the critical concentration for polymerisation in the presence of seeds in assay [2] is 10 nM. Also, in assay [3], the critical concentration for aggregation (Cc) was 150 nM and the stoichiometry N is > 100 proteins.
